Test results published in the supplement of paper PMC7877785.
± gives the uncertainty stated by the source.

Test: self-splicing fitness, log relative to wild type (ln ratio); higher = more splicing; Tetrahymena group I intron in knt gene, E. coli kanamycin selection, DiMSum; sequences stand for … in CUCUCU…GGAGGGAAAAGUUAUCAGGCAUGCACCUGGUAGCUAGUCUUUAAACCAAUAGAUUGCAUCGGUUUAAAAGGCAAGACCGUCAAAUUGCGGGAAAGGGGUCAACAGCCGUUCAGUACCAAGUCUCAGGGGAAACUUUGAGAUGGCCUUGCAAAGGGUAUGGUAAUAAGCUGACGGACAUGGUCCUAACCACGCAGCCAAGUCCUAAGUCAACAGAUCUUCUGUUGAUAUGGAUGCAGUUCACAGACUAAAUGUCGGUCGGGGAAGAUGUAUUCUUCUCAUAAGAUAUAGUCGGACCUCUCCUUAAUGGGAGCUAGCGGAUGAAGUGAUGCAACACUGGAGCCGCUGGGAACUAAUUUGUAUGCGAAAGUAUAUUGAUUAGUUUUGGAGUACUCGUGGUCG
Method in brief: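 Fitness was computed with DiMSum as the error-weighted combination of replicate fold changes, kanamycin versus none, each normalised to wild type. The library randomised all eight intron nucleotides of the P1ex region, with the intron placed in the knt kanamycin-resistance gene on pET-22b(+) in E. coli BL21(DE3). Six replicate transformations were grown overnight at 37°C or 30°C on LB agar with or without 25 μg/mL kanamycin, plus 100 μg/mL carbenicillin, 50 μM IPTG and 0.2% rhamnose. Pooled colonies were amplicon-sequenced on an Illumina HiSeq 2500.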

Row | Sequence | self-splicing fitness (ln) (30 °C) | self-splicing fitness (ln) (37 °C)
1 | CAGCAGCAAUAUUACGCGCG | -1.63 ± 0.099 | -1.3 ± 0.14
2 | CAGCAGCAAUAUUACGCGUA | -1.87 ± 0.083 | -1.05 ± 0.075
3 | CAGCAGCAAUAUUACGCUGU | -2.84 ± 0.22 | -2.36 ± 0.24
4 | CAGCAGCAAUAUUACGGAUC | -3.6 ± 0.36 | -1.37 ± 0.26
5 | CAGCAGCAAUAUUACGGGAC | -3.71 ± 0.22 | -2.46 ± 0.27
6 | CAGCAGCAAUAUUACGGUGG | -1.17 ± 0.067 | -0.196 ± 0.088
7 | CAGCAGCAAUAUUACGUCAG | -0.347 ± 0.05 | -0.265 ± 0.06
8 | CAGCAGCAAUAUUACGUGUC | -3.31 ± 0.15 | -2.79 ± 0.18
9 | CAGCAGCAAUAUUACGUGUG | -2.51 ± 0.077 | -1.32 ± 0.088
10 | CAGCAGCAAUAUUACGUUCU | -2.35 ± 0.072 | -1.4 ± 0.081
11 | CAGCAGCAAUAUUACGUUGC | -2.61 ± 0.27 | -2.11 ± 0.2
12 | CAGGAGCAAUAUUACGAUAA | -3.33 ± 0.2 | -1.88 ± 0.16
13 | CAGGAGCAAUAUUACGAUAC | -2.81 ± 0.4 | 
14 | CAGGAGCAAUAUUACGAUCA | -1.84 ± 0.16 | -2.74 ± 0.28
15 | CAGGAGCAAUAUUACGCAGG | -2.36 ± 0.078 | -1.37 ± 0.076
16 | CAGGAGCAAUAUUACGCCGC | -2.74 ± 0.25 | -1.58 ± 0.46
17 | CAGGAGCAAUAUUACGCGUA | -2.85 ± 0.16 | -2.03 ± 0.18
18 | CAGGAGCAAUAUUACGCGUG | -3.2 ± 0.16 | -2.42 ± 0.17
19 | CAGGAGCAAUAUUACGUAGA | -3.42 ± 0.28 | -1.56 ± 0.21
20 | CAGGAGCAAUAUUACGUAUU | -2.97 ± 0.21 | -2.2 ± 0.18
21 | CAGGAGCAAUAUUACGUCGC | -3.25 ± 0.34 | -1.6 ± 0.29
22 | CAGGAGCAAUAUUACGUGUA | -4.13 ± 0.27 | -2.83 ± 0.25
23 | CAGGAGCAAUAUUACGUUGC |  | -2.26 ± 0.28
24 | CAGUAGCAAUAUUACGAAAG | -0.623 ± 0.099 | -0.726 ± 0.14
25 | CAGUAGCAAUAUUACGAACG | -0.0483 ± 0.12 | -0.375 ± 0.14

Row | Sequence | self-splicing fitness (ln) (30 °C) | self-splicing fitness (ln) (37 °C)
26 | CAGUAGCAAUAUUACGAAUA | -4.27 ± 0.43 | -1.71 ± 0.2
27 | CAGUAGCAAUAUUACGAGAA |  | -3.36 ± 0.46
28 | CAGUAGCAAUAUUACGAGUU | -3.52 ± 0.18 | -2.06 ± 0.15
29 | CAGUAGCAAUAUUACGAUUA | -2.16 ± 0.13 | -1.73 ± 0.11
30 | CAGUAGCAAUAUUACGCAAC |  | -1.53 ± 0.36
31 | CAGUAGCAAUAUUACGCAAG | -1.07 ± 0.12 | -0.553 ± 0.17
32 | CAGUAGCAAUAUUACGCACA | -1.88 ± 0.14 | -0.579 ± 0.18
33 | CAGUAGCAAUAUUACGCAGA | -2.68 ± 0.37 | -2.43 ± 0.3
34 | CAGUAGCAAUAUUACGCCAG | -0.7 ± 0.1 | -0.109 ± 0.15
35 | CAGUAGCAAUAUUACGCCGU | -2.93 ± 0.36 | -0.37 ± 0.19
36 | CAGUAGCAAUAUUACGCGCA | -1.08 ± 0.074 | -0.617 ± 0.085
37 | CAGUAGCAAUAUUACGCGGA | -2.93 ± 0.24 | -1.64 ± 0.15
38 | CAGUAGCAAUAUUACGCGGG | -3.1 ± 0.16 | -1.91 ± 0.17
39 | CAGUAGCAAUAUUACGCUAA | -2.26 ± 0.5 | -2.38 ± 0.32
40 | CAGUAGCAAUAUUACGCUGA | -2.07 ± 0.24 | -1.95 ± 0.3
41 | CAGUAGCAAUAUUACGCUGC |  | -1.92 ± 0.43
42 | CAGUAGCAAUAUUACGGAAA | -3.56 ± 0.47 | -3.19 ± 0.4
43 | CAGUAGCAAUAUUACGGAAC |  | -2.72 ± 0.43
44 | CAGUAGCAAUAUUACGGACA | -2.94 ± 0.17 | -2.23 ± 0.17
45 | CAGUAGCAAUAUUACGGACG | -0.216 ± 0.11 | 0.702 ± 0.16
46 | CAGUAGCAAUAUUACGGGAU | -4.35 ± 0.31 | -3.18 ± 0.16
47 | CAGUAGCAAUAUUACGGUGG | -0.646 ± 0.06 | -0.131 ± 0.09
48 | CAGUAGCAAUAUUACGUAAU | -4 ± 0.28 | -2.63 ± 0.44
49 | CAGUAGCAAUAUUACGUACG | 0.212 ± 0.13 | 0.0818 ± 0.15
50 | CAGUAGCAAUAUUACGUGGG | -3.85 ± 0.29 | -1.92 ± 0.21
